Experiments:
[1] = molecular target: T1, ATF6 (Homo sapiens, UniProt P18850); experiment: In vitro protease assay, ATF6 captured on resin; type: biochemical; conditions: 50 μg/ml, 37° C., four hours (4 h) or overnight (O/N), anti-c-Myc detection
T1 construct: expressed in transfected cells; host or cells: HEK293T
T1 sequence (P18850 1-670): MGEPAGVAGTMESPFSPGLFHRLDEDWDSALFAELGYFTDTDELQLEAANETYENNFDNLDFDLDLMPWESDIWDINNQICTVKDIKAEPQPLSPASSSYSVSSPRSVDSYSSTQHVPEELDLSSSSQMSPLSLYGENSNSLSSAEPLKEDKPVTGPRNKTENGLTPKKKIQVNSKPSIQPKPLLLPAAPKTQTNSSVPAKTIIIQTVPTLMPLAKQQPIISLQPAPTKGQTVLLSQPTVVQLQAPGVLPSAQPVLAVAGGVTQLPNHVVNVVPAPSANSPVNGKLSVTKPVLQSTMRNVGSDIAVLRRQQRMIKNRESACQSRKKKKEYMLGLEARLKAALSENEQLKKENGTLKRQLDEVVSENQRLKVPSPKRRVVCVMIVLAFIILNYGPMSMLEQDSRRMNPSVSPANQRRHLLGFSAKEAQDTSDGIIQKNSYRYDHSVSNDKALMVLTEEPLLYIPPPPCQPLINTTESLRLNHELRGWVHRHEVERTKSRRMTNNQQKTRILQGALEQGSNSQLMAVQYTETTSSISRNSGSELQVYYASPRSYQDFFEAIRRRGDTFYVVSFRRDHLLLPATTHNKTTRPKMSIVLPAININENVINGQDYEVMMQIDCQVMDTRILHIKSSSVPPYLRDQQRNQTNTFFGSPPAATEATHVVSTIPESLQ
Protocol: CREBL1 and ATF6 which were captured on the resin were used in the experiments in order to eliminate the influence of proteinaceous impurities contained in the soluble fractions prepared from the cells obtained by transfecting an expression plasmid of CREBL1 or ATF6. Three hundreds μl of each soluble fraction of CREBL1 and ATF6 was dispensed to six tubes (Nos. 1 to 6), followed by adding 20 μl of protein G sepharose 4 FF (Amersham) of 50% slurry that had been subjected to blocking with BSA, to each of tubes, subjected to overturned mixing at 4° C. for 1 hour, and then subjected to centrifugation (10,000 rpm, 10 sec, 4° C.) to collect the supernatant, and thus the pre-treatment (pre-clean) was performed. The resultant supernatant was mixed with 1.7 μl (2 μg) of anti-Myc antibody (Invitrogen), subjected to overturned mixing at 4° C. for 3 hours, followed by adding 20 μl of protein G sepharose 4 FF that had been subjected to blocking with BSA, and then subjected to overturned mixing at 4° C. overnight. Thus, CREBL1 and ATF6 were respectively captured on protein G sepharose 4 FF. […]

[2] = tested on: casein; experiment: Casein zymography and protease assay with casein sodium; type: biochemical; conditions: casein zymography and casein sodium protease assay, 37° C., E. coli-expressed His-tagged protein
Protocol: Determination of the activity of mature HtrA2 and mature HtrA2 (S306A) was carried out with casein zymography and with a protease assay with casein sodium. Casein zymography was carried out according to the protocol (Invitrogen). More concretely, mature HtrA2 and mature HtrA2 (S306A) were mixed under non-reductive condition with equivalent volume of 2×SDS sample buffer, left to stand at room temperature for 10 min, followed by separation with 4-16% zymogram (Blue casein) gel (Zymogram Gel, Invitrogen). After completion of electrophoresis, they were renatured with 2.5% Triton X-100, and then subjected to a degradation reaction of casein in the developing buffer at 37= C. for overnight.
Meanwhile, a protease assay using casein sodium as an substrate was carried out in such that mature HtrA2 or mature HtrA2 (S306A) was mixed with casein sodium in a reaction buffer (150 mM NaCl, 50 mM Tris-HCl (pH 7.5)) so as to the concentration of the former might become 200 μg/ml and the concentration of the latter might become 400 μg/ml, and incubated at 37° C. for reactions. A portion of the reaction solution was sampled at three hours and overnight after initiation of the reaction, mixed with equivalent volume of 2×SDS sample buffer followed by boiling, and then subjected to SDS-PAGE. After that, the degradation of casein sodium was detected by Coomassie Brilliant Blue (CBB) staining.
The enzyme activity of the various types of HtrA2 each of which was expressed in a cultured cell was determined by the protease assay using casein sodium as a substrate (see Example 2).

B1: mature HtrA2: SEQ ID NO: 4; mature protein generated from HtrA2 precursor by cleavage of N-terminal 133 residues, has protease activity (protein, listed as Homo sapiens)
chain: MAVPSPPPASPRSQYNFIADVVEKTAPAVVYIEILDRHPFLGREVPISNGSGFVVAADGLIVTNAHVVADRRRVRVRLLSGDTYEAVVTAVDPVADIATLRIQTKEPLPTLPLGRSADVRQGEFVVAMGSPFALQNTITSGIVSSAQRPARDLGLPQTNVEYIQTDAAIDFGNSGGPLVNLDGEVIGVNTMKVTAGISFAIPSDRLREFLHRGEKKNSSSGISGSQRRYIGVMMLTLSPSILAELQLREPSFPDVQHGVLIHKVILGSPAHRAGLRPGDVILAIGEQMVQNAEDVYEAVRTQSQLAVQIRRGRETLTLYVTPEVTE
modifications: mature HtrA2
- degradation of ATF6 (band by western blotting) [1]: the band of ATF6 was reduced significantly
- degradation of casein [2]: degradation of casein by mature HtrA2 was observed
